# According to the domain aggregation screens of Martell et al. (2025):
# Assay: soluble fraction after stress (log2 fold change); higher = more stays soluble; pooled small domains, quantitative proteomics
# Details: stress: 50 degC
# Summary of the method: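 After stress at 50°C, the amount of each protein still soluble was measured. This was done on pooled custom libraries of small protein domains, using high-throughput quantitative proteomics. The figure given is a base-two log fold change and stands for aggregation propensity, with higher values meaning more protein stays in solution.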
row,Sequence,soluble fraction (log2)
1,HMESPLNPTDVRRAAMDLLARREHGVEELRLKLKRRFGREEDFETIATEQLQRLVDEDLLSDTRF,-0.165
2,HMTPDVAEFRERLRQILPGEQIEVRTANDGIVLSGTVSSIARLDAALQLAERYAPSRVSNLMSVG,0.19
3,HMVAQEVPYSTFVMRLDRNEVDAVKIIDGNEIEGTFKSPNGDLVQFKTLIPYQDTELMPLLKQKGVRISGS,0.386
4,HMEEPEELYRVKILIYNLLVRNGPGILYTRLRRADYPGEYGIYEEKNGYGKISATLSEWISLNTEYVQRLD,-2
5,HMDGVSLLFKLMETLPEQQKTILHLRDVEQLEFAEIAKITNTSQANVRVALSRARKKIKDLLLKQY,-2.17
6,HMIVVTSPQVTDERIAEIVAFIEKHGVQAHVSRGTDRTVIGIIGKADPVLAEHLRSMQGVENVIKIS,-0.0652
7,HMFIPGDSVRVHVKVVEGSNERIQMFEGVVIARQGSGVRENFTVRRISYGVGIERTFPVHSPRL,0.103
8,HMDLMQRVIIVRPVMQGDYLTRAHLGLQTLSRNGGGGFTDIDDLVGRRAKKSLRAGLVVHNRHL,-0.694
9,HMAPEVTVHDGSIVVRGHVGGVTVYDESGRQIASVQSRGAVAIPVPAGHTYLYIVKPEGKPAIKVRAAH,0.0927
10,HMGNIIITPNPASDFIKIISNSPIIKFGFYDIYGNTINKKFNDNSINISDLPVGMYLINLNERYFKLLK,-0.0951
11,HMPVAPTYALTVKTDPPSANVRLLNSPTPYQPGVRLPSGNYDIEVTQSGYATRKESVRIADRDVALNIAL,0.163
12,HMKFTPPTLEQIKNEMLLKTDEYNADIQSDRFFTYYDSNGWMVGKNKMKKFLVSLVAVFAATSA,-0.446
13,HMKEVKAPMPGMVLRVEVAPGQEVQEGDPLLVLEAMKMENNLKSPASGTIKSVHVEAGKAVEKGAVLVVF,-0.0671
14,HMEKDRDKRIRKRVLTALKRNDKKMTDKAFALLTSRIRDESILDQEVLKLIGYVGDRTTIDSKDINIVVAE,0.0525
15,HMNMPDVTVEWVKEQQAKFGLTDSDLAKSVNIDNANLARIFNQRGLTKIHKALFYYFFRAYGLQ,-2.4
16,HMEPEDVIAMERYLASGAIKGIGVTLAGRIIKKFQKETFHIIEEEPERLSEVKGISEKLAREIYQQFTQK,-0.873
17,HMIDAKTTLQELTQKSGKKPEYRLIKIEGPDHLRRFTVEVFIDGQSMGTGTGHSKKEAEQNAANFALKNLQ,0.0235
18,HMTGLFSPTEQTRHSKTGATLYSVKLAERIERNAFQSLKKRAKEHDGYYSSFTRSFLFDTPEDAEAFRGT,-0.27
19,HMGPTLTDEEEVVLNLLEKNHPVLLSELKENAGLSNKKWDKAIKGLSAHKLAKVTKTDDGLFVHLS,0.0395
20,HMRARTQYWPFVEEKAAELKLPLHLVNVEPLFGEQKVVVHYTANGRIDFRELVHLLARRFHARIEMR,0.212
21,HMPVEFVKISIKPGHPWENQFVRDIVSLPDLLMVLILRGEERIIPNGNTKILVGDKIVLSALSPG,-0.779
22,HMIHDSAESVVFPFGKYKGYTLAHVIREHPHYTYWIRDNADFSPLWREAVSLALQNRDIGHLNLPHVK,-0.416
23,HMERLLVSKINGMITEAKVSVEDVVKVVASRGHYPEVKSIDEYPDDFLSRWVVPNFKKIVEMINANKEA,0.187
24,HMSLSASELDQLRMMTKVSHMYHTRGMVQIDIARSLGLSQARVSRLLSAAEDANIVRTVVVA,-0.306
25,HMISVTNRTGTGLNDVKVEVFPVGRQMVFSATVFRVESEATNRFSLGELRGSDGTPFNQRVHRPESI,0.188

row,Sequence,soluble fraction (log2)
1,HMDNEIEQIVEDLNLTLSSLKYTKNQIESILPLIIKEIDDFKKKEKNISFENLLKLAMNHLDND,-0.269
2,HMNVNSQQINDLEKSIQKFFDKDIKNYLNQNLSNDRMISKNEIDKIILLYYGSDKEPTLDEIKSIFN,-0.0913
3,HMSLPALALRQADSLAFKQVIYHDRVVPFNTLARDFVLKLTGKPSYGGMTPEQVVGGWLLRPEVWQNEPM,-0.0387
4,HMGSIEASFEEDVRRYLARKSMTTTEISKKMRQKRPDMSRDQLMTLLANAIKRIKPIKKKIKGTLYLSLE,-1.3
5,HMGELTNALATLSERERDVARLVAQGLDNRQIAAQLFLSEGTVRNRISDILDKLALTNRTQLAIAWLHAE,-0.588
6,HMAFIEIMTEGDADGRGFQYPIPTYSITRDFDWSETENNKLLFEMTAKYGTPYFSNYINSDMEPSDV,-0.535
7,HMRPEVALSSRELEILEALATGKSNKELAQRLFISEATVKTHLIHIYQKLGVDTRTAAVTVARERKL,-1.52
8,HMTSESWAEKSRSLAAAGLIVMGRDAQLKIEGLTNLDPLIEAATASSTRLLTGQTIDELLTIVP,-0.265
9,HMAVPAALVQAWLELSRRMVAGTQDVGERFAEEARKMHYGETEDRGIRGQATLTEVRDLLDEGIEVLPLLL,-0.392
10,HMNIGVEQIEQMERGALITLWQELIDKPLPRHMSIVFLRQVLAFEVQSKQNGGLPRGFITLLNKQAD,-0.824
11,HMSDIISEIESQVMFKLATYEITNATEKMIEALINSEINDRRTLGFPIPNEQGRIFLVRSIQNKLAV,-1.05
12,HMIKIEDYTNKDYNKVEASLEVKGLVVNIEYKAVDDKAKYKGKEDLIIDQSVKKDATLVKGDTIILYLPK,-0.268
13,HMYDEAAIRKAVMTFVTDNRDERLDLAKISAVLTSKFGNINFDELGYKRFSSFIDSFPELRRNNTFVSLR,-0.312
14,HMDAMGAVGIARAFISAGERGGDISDGLEHMHGKLLRLSSLMYTRSGKKMAARRHELLSSFVQALEEEIK,-0.174
15,HMHTGLAELTDRERDVLRLIATGMTNAAIGSALAYSPSTIRADTVSIYRKLEVRGRAEAAAVAVAAGLTQP,-1.26
16,HMGFAPEAAREEVAQLIGQRGRAVTVLRPSGQVEIAGRRFEATVEVGAVDAGDTIVVRGQTAFALLVEKAD,0.0301
17,HMVKKYEKVKEYLLERILDGTYVPDLPIPPERELASLLDVNRMTVRRAVEELMYDGYLIRKKGSGTYLTR,-1.57
18,HMSDYVLLYSGLNTSDTTFLAYSFQEKGIRYKMPNPDEIEVRVQDVDQARRIAAGAQLGGQVS,-0.424
19,HMTAVVPNFKGKLISELSNFVADKNVRYTIIDSIYDPEEKSGIVIKQDPEEKTQVKHNRIIYLYVTST,-1.53
20,HMNRQTGTVKWFNDAKGFGFITPESGPDLFVHFRSIQGAGFKSLQEGQRVTFVAVQGQKGMQADQVQA,-0.762
21,HMKMLEINDNDSVGLKNLKTQYNHNQKVIENFQLEINKVINDGELPDKYLLDGMEKYQKLNMQIMSTIEKQ,0.00483
22,HMKTALQENVRAYRLERKWTQQALAEALEVSVGAVSKWESGVSRPELETLMRLAELFGVSTDALLGF,-1.75
23,HMGSGVNVTVNGKRMNLPLKDDHIIFVDIFNYIDFDLSKPKGSIVLKLNGRDAGYTDPIKDGDVIDIYWQ,0.33
24,HMATEWLSSKEAAQRLGVSAATLYAYVSRGLLRSEGSSGQRERRYRADDVAQLRRRREVGRKAESIAASTL,-0.433
25,HMSVKTIRKTEFAKRLYSLMLEKNWNQSDLARASGMGRDSVSQYIRANNTPSPQNLKKLAEALGVEPVELY,-1.3

row,Sequence,soluble fraction (log2)
1,HMKKVTMQDIANILNISRVTVWKVLNNQPGVSKQLRDQILLTAKETGYLKPGQEAEAYLEENNIYFEG,0.176
2,HMQETIDVAALRVGMFVHLDLGWLAHPFPLSSFRISSEDQISTIRALGLKRVRWSSQHSELG,-1.11
3,HMEDVRSLTGPEKAAIILLSLGEEHGQGVWRMFDDEEVKEVSQIMANLGTISASVVEKLLVEFVSQMST,-0.873
4,HMDGVYLKSLKQTEQHIHWSGYAQSNAWVSTLMRNLDASPWFESPLLIEIKAATINNSRSNEFDLNVRL,0.0711
5,HMNDVHELPYSSFIEMVERGHVISVTVKHINIEFESTKNENYRTIAPQAMTPPYLELLLKNKDSVKVTFLP,-1.69
6,HMNATLEQLTQREREIAVLMAEGLTNAQIGSRLNVSMASVKAHLSHIFTKLGVDNRVSAAMMVL,-0.654
7,HMDIGKNIQTIRYANKLTQDQVIAKLNLMGISMSKSTYAKLETNRMNIKVSELVALAKIFHTDINAF,-2.43
8,HMSRAARLALDALPDEWAQFAESRGLAGSAMAETWETFRDYWQAQPGQKGVKADWAATWRNWVRRETQNRG,-0.167
9,HMNEYLPEAVQKLLEVMEYDIPYTSNELMERLGLKAKEGFRRNYLHPAMEMKLIQMTIPDKPNSRNQRYLR,-2.11
10,HMTRIHEEVVNQVHDLVKEGRFKAGDQLPSERELAEIFKVSRTSVREALRALETQGLIISRTGMGNFIAD,-0.0448
11,HMGTRTILGIDPGSRKTGFGIIRLDGSRTHYVSSGVIRIPDTALPERLKIIFASLNEIIQQFQPQEV,0.0673
12,HMIEQEQAFLEQVLKKYSQEELVLTVGSRTLVKYSAGQLERLLEHYPHVRLASSPVNGEAGFLLSRG,-0.0933
13,HMDVADITGTRKAAILLLTMDEELSKELLKEFERHEIEAIGKEIANIKYIPENIVKQVHSEFLKNINKS,-0.212
14,HMGGDFVEHLKDLASEAPVIRLVNTIIGRVIDLRASDIHLEPFDDGLHVRYRVDGVIHPGELVPPRLS,0.0558
15,HMRKEEFIRELVLELKQNVSEQVILEQKRFYEEYILTEVRGGKTEEEVIASLSEPRLLAKSIIDAAEAGGD,-0.155
16,HMKGVTVDGDNITVDGEKQTLISVNKNLDGDVVSYTYRTADGKLRTSRNVEVAQEINKQQLLKSIDAQ,0.0821
17,HMKREWKDDDPTVPAGWKVAWTTTSDNRAKIAFMSPDKKIFHSRKSALQHMLAAGTYAQSDIEKMTKGL,-0.112
18,HMTKIAFPQMLNKYRLQKNLTMEQLAEEVGKTKSTISKWEAGTRSPKIYEIEEIAKYFGVEPQTMMF,-0.453
19,HMGESVVVPDLRGKTLEEARAILKKVDLDYEINDSTYSKTAVPGTIRDIVPAPGSHVKAGRILFVSING,-0.145
20,HMKAQTVPQFVGMTMTEAEEKASELGITLIEGAVVDSVEPKDTILTQDVDEGTEITGKMEIMVTISS,-0.28
21,HMEREQNIAQGREVVQRELKRLGLTDVFTVEDIGRALKFDDIDEFLSKVGFGDIQTAKITGAIALMQQALR,0.0611
22,HMVAGHLQTKKGYYYIVLNMRTDTGARKTKWIATGIPEGGKKNLKQAEELLAKTRYTYEDMVI,-0.792
23,HMKTGNIIAVSLVWKGKYYMIRMFFPSAARPSRADVQTEIEKVYPGSKLSSFSVSDYEPGQPLLQV,-2.31
24,HMDLPDFTSRERDILARVVQGDSNERIAASLGVSVSTVKTHIGNILRKTGQTNRVRLIVWATRHL,-1.72
25,HMIESFQNGLVEHDQFTRPNPWVTPNFSKIEVPSILLSGKHADIDLWKHQNSIENTKKNRPDLFKNYLKKN,0.211
